Reference: patent US20240199761A1 (AstraZeneca / MedImmune, published 2024)

Experiments:
[1] = biological target: T1, recombinant human PAD2 (biotinylated) (human, UniProt Q9Y2J8 1-665, enzymatically biotinylated on an Avi-tag); test: SPR (Biacore), biotinylated PAD2 on CM5/C1-streptavidin, Fab flowed over; average
T1 construct: not shown: Avi-tag (and any other tags); said to be at the C-terminus in this earlier assay

[2] = biological target: T2, recombinant human PAD2 (human, UniProt Q9Y2J8 1-665, enzymatically biotinylated on an Avi-tag); test: SPR (Biacore 8K), biotinylated PAD2 on streptavidin chip, Fab flowed over
T2 construct: Recombinant, biotinylated on an Avi-tag and captured on streptavidin; also called peptidyl arginine deiminase 2
T2 sequence (Q9Y2J8 whole entry): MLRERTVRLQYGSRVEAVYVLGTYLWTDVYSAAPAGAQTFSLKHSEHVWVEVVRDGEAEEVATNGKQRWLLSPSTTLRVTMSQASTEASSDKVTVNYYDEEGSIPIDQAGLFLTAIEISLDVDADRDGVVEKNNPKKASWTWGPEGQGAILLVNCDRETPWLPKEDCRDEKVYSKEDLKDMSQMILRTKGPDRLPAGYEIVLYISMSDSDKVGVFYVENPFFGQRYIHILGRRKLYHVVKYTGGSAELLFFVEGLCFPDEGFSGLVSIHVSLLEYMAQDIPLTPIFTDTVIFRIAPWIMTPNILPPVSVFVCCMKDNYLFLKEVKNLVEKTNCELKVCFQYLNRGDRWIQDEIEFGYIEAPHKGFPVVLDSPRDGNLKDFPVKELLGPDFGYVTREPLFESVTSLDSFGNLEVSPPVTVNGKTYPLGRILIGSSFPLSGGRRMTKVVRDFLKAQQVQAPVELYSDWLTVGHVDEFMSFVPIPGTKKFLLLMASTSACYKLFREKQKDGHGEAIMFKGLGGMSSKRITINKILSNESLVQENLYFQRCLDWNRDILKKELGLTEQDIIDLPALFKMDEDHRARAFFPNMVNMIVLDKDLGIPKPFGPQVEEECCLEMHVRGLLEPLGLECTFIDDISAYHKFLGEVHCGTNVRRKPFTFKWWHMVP

[3] = biological target: T3, recombinant mouse PAD2 (biotinylated) (mouse, UniProt Q08642 1-673, enzymatically biotinylated on an Avi-tag); test: SPR (Biacore), biotinylated PAD2 on CM5/C1-streptavidin, Fab flowed over; average
T3 construct: not shown: Avi-tag (and any other tags); said to be at the C-terminus in this earlier assay
T3 sequence (Q08642 whole entry): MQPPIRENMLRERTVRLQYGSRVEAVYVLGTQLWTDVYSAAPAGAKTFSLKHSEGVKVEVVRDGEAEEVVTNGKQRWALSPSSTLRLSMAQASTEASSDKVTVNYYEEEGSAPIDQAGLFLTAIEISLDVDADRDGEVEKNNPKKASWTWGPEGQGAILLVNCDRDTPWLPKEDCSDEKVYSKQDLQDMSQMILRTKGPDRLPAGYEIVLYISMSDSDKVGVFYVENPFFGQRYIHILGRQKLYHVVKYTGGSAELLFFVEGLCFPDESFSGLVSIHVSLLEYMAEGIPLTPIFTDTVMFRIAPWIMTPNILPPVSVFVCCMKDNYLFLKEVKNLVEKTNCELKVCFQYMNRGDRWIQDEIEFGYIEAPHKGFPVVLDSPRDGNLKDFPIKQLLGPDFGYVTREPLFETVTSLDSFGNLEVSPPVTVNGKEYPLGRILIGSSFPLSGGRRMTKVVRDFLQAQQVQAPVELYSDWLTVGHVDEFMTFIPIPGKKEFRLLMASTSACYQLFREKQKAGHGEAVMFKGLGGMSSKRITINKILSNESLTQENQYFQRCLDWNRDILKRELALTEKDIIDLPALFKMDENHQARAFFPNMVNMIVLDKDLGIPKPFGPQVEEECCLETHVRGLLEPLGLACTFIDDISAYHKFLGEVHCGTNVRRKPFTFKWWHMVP

[4] = biological target: T4, huFcRn (human, UniProt P55899 24-297; P61769 21-119, limits assumed); test: huFcRn affinity chromatography, pH gradient elution
T4 construct: also called human neonatal Fc receptor

[5] = biological target: T5, recombinant mouse PAD2 (mouse, UniProt Q08642 1-673, enzymatically biotinylated on an Avi-tag); test: SPR (Biacore 8K), biotinylated PAD2 on streptavidin chip, Fab flowed over
T5 construct: Recombinant, biotinylated on an Avi-tag
T5 sequence (Q08642 whole entry): as above

T1 sequence (Q9Y2J8 whole entry): as the sequence (Q9Y2J8 whole entry) above

Kd [1] [nM] | koff [1] [s⁻¹] | kon [1] [M⁻¹ s⁻¹] | Kd [2] [nM] | Kd [3] [nM] | koff [3] [s⁻¹] | kon [3] [M⁻¹ s⁻¹] | Binder | also measured
261 | 0.111 | 445000 | – | – | – | – | PAD40141 hIgG1 ngl-2 (Parent) (Fab, V domains shown, Anti-PAD2; tested as Fab) VH: not shown VL: SYVLTQPPSVSVSPGQTASITCSGDKVGDKYVSWYQQKPGQAPVLVMYQDSQRPSGIPERISGSNSGNTATLTISGTQAVDEAEYYCQTWDSNEYVFGSGTKVTVL | –
– | – | – | 261 | – | – | – | PAD40141 hIgG1 ngl-2 (anti-PAD2, parent) Fab (Fab, V domains shown, Tested as Fab) VH: not shown VL: SYVLTQPPSVSVSPGQTASITCSGDKVGDKYVSWYQQKPGQAPVLVMYQDSQRPSGIPERISGSNSGNTATLTISGTQAVDEAEYYCQTWDSNEYVFGSGTKVTVL | –
– | – | – | 1.87 | – | – | – | 141LO0039 hIgG1 ngl-2 (anti-PAD2) Fab (Fab, V domains shown, Tested as Fab) VH: not shown VL: SYVLTQPPSVSVSPGQTASITCSGDKVGDKYVSWYQQKPGQAPVLVMYQDSQRPSGIPERISGSNSGNTATLTISGTQAVDEAEYYCHTYAEDEYVFGSGTKVTVL | –
– | – | – | 0.949 | – | – | – | 141LO0030 hIgG1 ngl-2 (anti-PAD2) Fab (Fab, V domains shown, Tested as Fab) VH: not shown VL: SYVLTQPPSVSVSPGQTASITCSGDKVGDKYVSWYQQKPGQAPVLVMYQDSQRPSGIPERISGSNSGNTATLTISGTQAVDEAEYYCQTWYDDALTFGSGTKVTVL | –
3.31 | 0.0035 | 1.07e+06 | – | 33.8 | 0.026 | 777000 | 141LO0002 hIgG1 pgl-3 (Germlined) (Fab, V domains shown, Anti-PAD2; tested as Fab) VH: not shown VL: SYVLTQPPSVSVSPGQTASITCSGDKVGDKYVSWYQQKPGQSPVLVIYQDSQRPSGIPERFSGSNSGNTATLTISGTQAMDEADYYCEVGVDYEYVFGSGTKVTVL | –
0.364 | 0.000675 | 1.85e+06 | – | – | – | – | 141LO0055 hIgG1 ngl-2 (Fab, V domains shown, Anti-PAD2; tested as Fab) VH: not shown VL: SYVLTQPPSVSVSPGQTASITCSGDKVGDKYVSWYQQKPGQAPVLVMYQDSQRPSGIPERISGSNSGNTATLTISGTQAVDEAEYYCQSENAVEYVFGSGTKVTVL | –
– | – | – | 0.364 | – | – | – | 141LO0055 hIgG1 ngl-2 (anti-PAD2) Fab (Fab, V domains shown, Tested as Fab) VH: not shown VL: SYVLTQPPSVSVSPGQTASITCSGDKVGDKYVSWYQQKPGQAPVLVMYQDSQRPSGIPERISGSNSGNTATLTISGTQAVDEAEYYCQSENAVEYVFGSGTKVTVL | –
0.185 | 0.000192 | 1.04e+06 | – | 0.571 | 0.000646 | 1.14e+06 | 141LO0035 hIgG1 ngl-2 (Fab, V domains shown, Anti-PAD2; tested as Fab) VH: not shown VL: SYVLTQPPSVSVSPGQTASITCSGDKVGDKYVSWYQQKPGQAPVLVMYQDSQRPSGIPERISGSNSGNTATLTISGTQAVDEAEYYCQTWAPDVLLFGSGTKVTVL | –
0.949 | 0.000613 | 647000 | – | – | – | – | 141LO0030 hIgG1 ngl-2 (Fab, V domains shown, Anti-PAD2; tested as Fab) VH: not shown VL: SYVLTQPPSVSVSPGQTASITCSGDKVGDKYVSWYQQKPGQAPVLVMYQDSQRPSGIPERISGSNSGNTATLTISGTQAVDEAEYYCQTWYDDALTFGSGTKVTVL | –
2.78 | 0.00314 | 1.13e+06 | – | 38.5 | 0.0256 | 692000 | 141LO0002 hIgG1 pgl-4 (Germlined) (Fab, V domains shown) VH: not shown VL: SYVLTQPPSVSVSPGQTASITCSGDKVGDKYVSWYQQKPGQSPVLVIYQDSQRPSGIPERFSGSNSGNTATLTISGTQAMDEADYYCEVGVDYEYVFGSGTKVTVL | –
3.78 | 0.00328 | 880000 | – | – | – | – | 141LO0002 hIgG1 ngl-2 (Fab, V domains shown) VH: not shown VL: SYVLTQPPSVSVSPGQTASITCSGDKVGDKYVSWYQQKPGQAPVLVMYQDSQRPSGIPERISGSNSGNTATLTISGTQAVDEAEYYCEVGVDYEYVFGSGTKVTVL | –
– | – | – | 3.78 | – | – | – | 141LO0002 hIgG1 ngl-2 (anti-PAD2) Fab (Fab, V domains shown) VH: not shown VL: SYVLTQPPSVSVSPGQTASITCSGDKVGDKYVSWYQQKPGQAPVLVMYQDSQRPSGIPERISGSNSGNTATLTISGTQAVDEAEYYCEVGVDYEYVFGSGTKVTVL | –
1.87 | 0.00157 | 840000 | – | – | – | – | 141LO0039 hIgG1 ngl-2 (Fab, V domains shown, Anti-PAD2; tested as Fab) VH: not shown VL: SYVLTQPPSVSVSPGQTASITCSGDKVGDKYVSWYQQKPGQAPVLVMYQDSQRPSGIPERISGSNSGNTATLTISGTQAVDEAEYYCHTYAEDEYVFGSGTKVTVL | –
– | – | – | – | – | – | – | Clone 10 (Bis3, TM-YTE; Fab anti-PAD2, scFv anti-PAD4) (bispecific antibody, human IgG1, lambda, Bivalent bispecific IgG-HC-scFv; also called PAD240010) heavy: not shown light: SYVLTQPPSVSVSPGQTASITCSGDKVGDKYVSWYQQKPGQSPVLVIYQDSQRPSGIPERFSGSNSGNTATLTISGTQAMDEADYYCQTWAPDVLLFGSGTKVTVLGQPKAAPSVTLFPPSSEELQANKATLVCLISDFYPGAVTVAWKADSSPVKAGVETTTPSKQSNNKYAASSYLSLTPEQWKSHRSYSCQVTHEGSTVEKTVAPTECS | HPLC retention [4]: 22.8 min; Relative retention [4]: 0.753
– | – | – | – | – | – | – | Clone 09 (Bis3, TM-YTE; Fab anti-PAD4, scFv anti-PAD2) (bispecific antibody, human IgG1, lambda, Bivalent bispecific IgG-HC-scFv; also called PAD240009) heavy: not shown light: QSALTQPRSVSGSPGQSVTISCTGTSGDVGRYSHVSWYQQHPGKAPKLIIYNVYERPSGVPDRFSGSKSGNTASLTISGLQAEDEADYYCSSHSRSSTPVLFGGGTKLTVLGQPKAAPSVTLFPPSSEELQANKATLVCLISDFYPGAVTVAWKADSSPVKAGVETTTPSKQSNNKYAASSYLSLTPEQWKSHRSYSCQVTHEGSTVEKTVAPTECS | HPLC retention [4]: 23.3 min; Relative retention [4]: 0.828
0.218 | 0.000221 | 1.01e+06 | – | 0.794 | 0.000766 | 971000 | 141LO0035 hIgG1 pgl-4 (Germlined) Clone 22 (Fab, V domains shown, Anti-PAD2 lead; tested here as Fab) VH: not shown VL: SYVLTQPPSVSVSPGQTASITCSGDKVGDKYVSWYQQKPGQSPVLVIYQDSQRPSGIPERFSGSNSGNTATLTISGTQAMDEADYYCQTWAPDVLLFGSGTKVTVL | –
– | – | – | 0.218 | – | – | – | 141LO0035 hIgG1 pgl-4 (Clone 22, anti-PAD2) Fab (Fab, V domains shown, Tested as Fab) VH: not shown VL: SYVLTQPPSVSVSPGQTASITCSGDKVGDKYVSWYQQKPGQSPVLVIYQDSQRPSGIPERFSGSNSGNTATLTISGTQAMDEADYYCQTWAPDVLLFGSGTKVTVL | Kd [5]: 0.794 nM
3.9 | 0.00245 | 629000 | – | 17.8 | 0.0125 | 722000 | 141LO0039 hIgG1 pgl-4 (Germlined) (Fab, V domains shown, Anti-PAD2; tested as Fab) VH: not shown VL: SYVLTQPPSVSVSPGQTASITCSGDKVGDKYVSWYQQKPGQSPVLVIYQDSQRPSGIPERFSGSNSGNTATLTISGTQAMDEADYYCHTYAEDEYVFGSGTKVTVL | –
– | – | – | 2.14 | – | – | – | 141LO0030 hIgG1 pgl-4 (anti-PAD2) Fab (Fab, V domains shown, Tested as Fab) VH: not shown VL: SYVLTQPPSVSVSPGQTASITCSGDKVGDKYVSWYQQKPGQSPVLVIYQDSQRPSGIPERFSGSNSGNTATLTISGTQAMDEADYYCQTWYDDALTFGSGTKVTVL | Kd [5]: 13.2 nM
2.14 | 0.00101 | 474000 | – | 13.2 | 0.00484 | 378000 | 141LO0030 hIgG1 pgl-4 (Germlined) (Fab, V domains shown, Anti-PAD2; tested as Fab) VH: not shown VL: SYVLTQPPSVSVSPGQTASITCSGDKVGDKYVSWYQQKPGQSPVLVIYQDSQRPSGIPERFSGSNSGNTATLTISGTQAMDEADYYCQTWYDDALTFGSGTKVTVL | –
6.73 | 0.000629 | 93000 | – | 2.35 | 0.000288 | 123000 | PAD40175 hIgG1 ngl-2 (Fab, V domains shown, Anti-PAD2; tested as Fab) VH: not shown VL: QAVLTQPSSVSVAPGKTATITCGGDNIGSKSVHWYQQKPGQAPLLVIFYDTDRPSGVPERFSGSNSGNTATLTISRVEAGDEADYYCQVWDSNGDHYVFGTGTKLTVL | –
